The target in test [1] is intercellular adhesion molecule-1 (ICAM-1) of epithelial cells (human (endogenous in primary tonsil, cervical and foreskin keratinocytes)) (UniProt P05362).
For test [2] the target is unchanged. The source holds these as a separate data set.

Several values for one entry are separate records, joined by “and”; a condition that tells them apart may be missing. Equal entries are not always repeated.

Chain of UniProt P05362 (P05362 28-532): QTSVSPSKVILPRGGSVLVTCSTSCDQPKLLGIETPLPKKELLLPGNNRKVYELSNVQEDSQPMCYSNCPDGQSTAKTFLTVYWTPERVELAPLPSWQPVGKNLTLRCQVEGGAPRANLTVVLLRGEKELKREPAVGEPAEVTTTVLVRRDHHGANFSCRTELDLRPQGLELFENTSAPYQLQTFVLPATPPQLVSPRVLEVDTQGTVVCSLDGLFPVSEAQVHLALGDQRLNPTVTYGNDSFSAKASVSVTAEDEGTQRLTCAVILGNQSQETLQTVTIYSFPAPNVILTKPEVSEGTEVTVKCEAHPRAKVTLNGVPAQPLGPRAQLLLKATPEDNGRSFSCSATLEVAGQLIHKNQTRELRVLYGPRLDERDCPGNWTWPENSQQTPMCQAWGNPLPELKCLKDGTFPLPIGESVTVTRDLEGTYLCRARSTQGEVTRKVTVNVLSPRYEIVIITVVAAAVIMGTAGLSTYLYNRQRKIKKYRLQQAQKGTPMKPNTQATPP

As to “lymphocyte receptor function-associated antigen-1 (LFA-1) (from UniProt P20701 26-1170; P05107 23-769) (complex)”, the reduction of HIV-1 SF33 spread from AP and BL surfaces of polarized tonsil epithelial cells to activated PBMC, in the presence of antibodies against ICAM-1 and LFA-1 (ELISA p24 of PBMC after 7 days) in test [1] lay within 65 to 70%. In test [2], the reduction of HIV-1 SF33 spread from AP and BL membranes of polarized cervical and foreskin epithelial cells to activated PBMC, in the presence of antibodies to LFA-1 and ICAM-1 (ELISA p24) was 40% and 50%; the reduction of spread of R5-tropic HIV-1 SF170 from polarized cervical and foreskin epithelial cells to CD4+ T lymphocytes, in the presence of antibodies to LFA-1 and ICAM-1 (ELISA p24) was determined as 70%; the reduction of spread of X4-tropic HIV-1 92UG029 from polarized cervical and foreskin epithelial cells to CD4+ T lymphocytes, in the presence of antibodies to LFA-1 and ICAM-1 (ELISA p24) was 50%.

The values are drawn from article PMC5344537.
